Measured values reported in US20130071400A1, “LINGO binding molecules and Pharmaceutical Use Thereof” (NOVARTIS AG, priority 2006, published 2013).

Tested on: postnatal day 7 rat cerebellar granule neurons (CGN)
Assay: Neurite outgrowth inhibition assay on spinal cord myelin
Format: cell-based
Details: sub-nM concentrations in vitro
Protocol: A) P7 CGN cells are incubated for 16 hr on wells coated without spinal cord myelin (no SC, white bars) or wells coated with spinal cord myelin in the absence (SC, red bars) or presence of anti-LINGO-1 IgG4 antibodies, a control anti-lysozyme IgG4 antibody 3207 (green bars) or […] of the ROCK inhibitor Y27632 (yellow bar). […] The experiment is performed in three 96 well plates with an SC and no SC condition per plate to which the effects of the antibodies on that plate are compared and mean neurite length per neuron (μm) is calculated for 500 neurons per well in replicates of 10. The percentage inhibition (white text) is calculated as the percentile difference in mean neurite length/neuron between cells plated on wells coated with and without SC. The percentage disinhibition (black italic text) is calculated as the difference in mean neurite length between cells plated on SC in the presence and absence of anti-LINGO-1 antibody as a percentile of the difference between cells plated on wells coated with and without SC. *p<0.05, **p<0.01 (one way ANOVA, Holm-Sidak comparison to mean neurite length/neuron for cells plated on spinal cord myelin in the absence of antibody).
A) P7 CGN cells are incubated for 8 hr on wells coated without spinal cord myelin (no SC, white bars) or wells coated with spinal cord myelin in the absence (SC, red bars) or presence of anti-LINGO-1 IgG4 antibodies or a control anti-lysozyme IgG4 antibody 3207. The experiment is performed in three 96 well plates with an SC and no SC condition per plate to which the effects of the antibodies on that plate are compared and mean neurite length per neuron (μm) is calculated for 500 neurons per well in replicates of 10. The percentage inhibition (white text) and disinhibition (black italic text) is calculated as above. **p<0.01 (one way ANOVA, Holm-Sidak comparison to mean neurite length/neuron for cells plated on spinal cord myelin in the absence of antibody).
P7 CGN cells are incubated for 8 hr on wells coated without spinal cord myelin (no SC) or wells coated with spinal cord myelin in the absence (SC) or presence of the indicated concentrations of anti-LINGO-1 IgG4 antibodies 4784 or 4785, a control anti-lysozyme IgG4 antibody 3207 or 1 μM Y27632 (ROCK). The experiment is performed in three 96 well plates with an SC and no SC condition per plate to which the effects of the antibodies on that plate are compared and mean neurite length per neuron (μm) is calculated for 500 neurons per well in replicates of 10. The percentage inhibition (white text) and disinhibition (black italic text) is calculated as above. *p<0.05, **p<0.01 (one way ANOVA, Holm-Sidak comparison to mean neurite length/neuron for cells plated on spinal cord myelin in the absence of antibody). […]

B1: IgG4 4784: monoclonal human anti-LINGO-1 IgG4 antibody; VL SEQ ID NO: 4, VH SEQ ID NO: 5 (antibody, V domains shown)
VH: QVQLKESGPALVKPTQTLTLTCTFSGFSLSSSGVGVGWIRQPPGKALEWLAHIGSDDDKYYSTSLKTRLTISKDTSKNQVVLTMTNMDPVDTATYYCARNQQYGDGYPGYFDYWGQGTLVTVSS
VL: DIELTQPPSVSVAPGQTARISCSGDNIGNYYVYWYQQKPGQAPVLVIYEDTNRPSGIPERFSGSNSGNTATLTISGTQAEDEADYYCQSYDNLHEQVFGGGTKLTVLG
modifications: IgG4; 4784 VH; 4784 VL
attenuation of the neurite outgrowth inhibitory activity of adult rat spinal cord myelin: significantly attenuate

B2: IgG4 4785: monoclonal human anti-LINGO-1 IgG4 antibody; VL SEQ ID NO: 6, VH SEQ ID NO: 7 (antibody, V domains shown)
VH: QVQLQQSGPGLVKPSQTLSLTCAISGDSVSDNSAAWSWIRQSPGRGLEWLGLIYLRSKWDNDYAVSVKSRITINPDTSKNQFSLQLNSVTPEDTAVYYCARTGRADEFDVWGQGTLVTVSS
VL: DIVLTQPPSVSGAPGQRVTISCSGSSSNIGNNYVSWYQQLPGTAPKLLISRNSKRPSGVPDRFSGSKSGTSASLAITGLQSEDEADYYCSTYDTFSIVFGGGTKLTVLG
modifications: IgG4; 4785 VH; 4785 VL
attenuation of the neurite outgrowth inhibitory activity of adult rat spinal cord myelin: significantly attenuate
